Test results reported in patent publication US20190015484A1, “NICOTINE-DEGRADING ENZYMES FOR TREATING NICOTINE ADDICTION AND NICOTINE POISONING” (priority 2015, published 2019).
“Also recorded” adds a separate entry of the source.

Assay: NicA2 co-factor assay (FAD or FMN)
Assay type: biochemical
Settings: 40 μM FMN or FAD, room temperature
Protocol: An FAD or FMN stock solution was added to nicotine HEPES solution to obtain 80 μM FAD or FMN mixed with 4 μM nicotine. 100 μL each sample was mixed with
100 μL 40 nM NicA2 and incubated at room temperature for 20 min. An additional sample without FAD or FMN was prepared at the same time as the control. The samples were analyzed as described above.

B1: NicA2: flavin-containing nicotine-degrading enzyme of Pseudomonas putida S16, amino acid sequence SEQ ID NO:1 (protein)
chain: MSDKTKTNEGFSRRSFIGSAAVVTAGVAGLGAIDAASATQKTNRASTVKGGFDYDVVVVGGGFAGATAARECGLQGYRTLLLEARSRLGGRTFTSRFAGQEIEFGGAWVHWLQPHVWAEMQRYGLGVVEDPLTNLDKTLIMYNDGSVESISPDEFGKNIRIAFEKLCHDAWEVFPRPHEPMFTERARELDKSSVLDRIKTLGLSRLQQAQINSYMALYAGETTDKFGLPGVLKLFACGGWNYDAFMDTETHYRIQGGTIGLINAMLTDSGAEVRMSVPVTAVEQVNGGVKIKTDDDEIITAGVVVMTVPLNTYKHIGFTPALSKGKQRFIKEGQLSKGAKLYVHVKQNLGRVFAFADEQQPLNWVQTHDYSDELGTILSITIARKETIDVNDRDAVTREVQKMFPGVEVLGTAAYDWTADPFSLGAWAAYGVGQLSRLKDLQAAEGRILFAGAETSNGWHANIDGAVESGLRAGREVKQLLS
modifications: His tag
  effect of added FMN or FAD on NicA2 activity: no change in NicA2 activity; also recorded: did not affect the activity
